In the nanobody polyreactivity screen of Harvey et al. (2022):

Assay: yeast display, Sf9 membrane polyspecificity reagent, FACS + sequencing; frameworks hold sequencing errors
In short: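 Synthetic nanobody libraries on Saccharomyces cerevisiae BJ5465 were galactose-induced for 36–48 hours, stained 1 hour at 4 °C with 10% biotinylated, detergent-solubilized Sf9 membrane reagent and enriched on streptavidin microbeads. FACS then separated cells into low and high (top ~1%) gates by anti-HA (expression) and streptavidin (reagent binding) fluorescence. Genes were colony-PCR amplified, MiSeq 2 × 250 sequenced and CDR-length filtered. A clone's polyreactivity label is that of its gate of origin.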

QVQLVESGGGLVQAGGSLRLSCAASAYIYRGYPLGRYRQAPGKERELVAAISNIGGTTYYADSVKGRFTISRDNAKNTVYLQMISLKREDTEVYYCAAEHSYWGWAYGYWGQGTQVTLSS
polyreactivity (PSR sort gate): high polyreactivity

QVQLVESGGGLVQAGGSLRLSCAASGRIFLVNAMGWYRQAPGKERELVAAINFISGSTYYADSVKGRFTISRDNAKNTVYLQMNSLKPEDTAVYYCAAYSYWSYVQRYKLEYDYWGQGTQVTVSS
polyreactivity (PSR sort gate): low polyreactivity

QVQLVESGGGLVQAGGSLRLSCAASGSTFVYYDMGWYRQAPGKERELVADISDSGGSTNYADSVKGRFTISRDNAKNTVYLQMNSLKPEDTAVYYCAADSADPTEYDYWGQGTQVTVSS
polyreactivity (PSR sort gate): low polyreactivity

QVQLVESGGGLVQAGGSLRLSCAASGFTFTTNAMGWYRQAPGKERELVAAISKRGTRTYYADSVKGRFTISRDNAKNTVYLQMNSLKPEDTAVYYCAAASVAGDKFDYWGQGTQVTVSS
polyreactivity (PSR sort gate): high polyreactivity

QVQLVESGGGLVQAGGSLRLSCAASGSTLVYYDMGWYRQAPGKEREFVAAITISGGRTYYADSVKGRFTISRDNAKNTVYLQMNSLKPEDTAVYYCAADTDRRSPFDYWGQGTQVTVSS
polyreactivity (PSR sort gate): high polyreactivity

QVQLVESGGGLVQAGGSLRLSCAASGSTIVPNTMGWYRQAPGKERELVAGITSGGSTYYADSVKGRFTISRDNAKNTVYLQMNSLKPEDTAVYYCAADDGSTANEKLIHEYNYWGQGTQVTVSS
polyreactivity (PSR sort gate): low polyreactivity

QVQHVESGGGLVQAGGSLRLSCAASGGTFYTYAMGWYRQAPGKERELVAAITSRGSSTYYADSVKGRFTISRDNANNTVYLQMNSLKPEDTAVYYCARRSQRGMYSMYYWGQGTQVTVSS
polyreactivity (PSR sort gate): low polyreactivity

QVQLVESGGGFVQAGGSLRLSFAASGFTFGRYAMGWYIQAPGKERELVAAISWSDGSTYYADSVKGRFTISRDNAKNTVYLQMNSLKPQDTAVYYCAARYGGGISQAKYYYWGQGTQVTVSS
polyreactivity (PSR sort gate): high polyreactivity

QVQLVDSGGRLFQAGGSLRLSCAAYGFSFSYYDMGSYRQAPGKERELVAAIFSNGRTYYADSVKGRFTISRDNAKNTVYLQMNSLKPVDTAVYYCAAAYVGYYYSRGFDYWGQGTQVTVSS
polyreactivity (PSR sort gate): high polyreactivity

QVQLVESGGALHQAGGSLRLNCAASGRTFGANAMGWYRQAPGKERELVAAISSSDDSTYYADSVKGRFTISRDNAKKTVYLQMNSLKPEDTAVYYCAAEDVYRQLDYWGQGTQVTVSS
polyreactivity (PSR sort gate): low polyreactivity

QVQLVESGGGLVQAGGSLRLSCAASGSIFVIYAMGWYRQAPGKERELVAAITSGGNTTYADSVKGRFTISRDNAKNTVYLQMNSLKPEDTAVYYCAAYSYYTGDQYSYDYWGQGTQVTVSS
polyreactivity (PSR sort gate): low polyreactivity

QVQLVESGGGLVQAGGSLRLSCAASGSTFYIYAMGWYRQAPGKERELVARISGSGGSTYYSDSVKGRFTISRDNSKNTVYLQMNSLKPEVTAVYYCAADDIYKYYQYYAFPYYRYDYWGQGTQVTVSS
polyreactivity (PSR sort gate): low polyreactivity

QVQLVESAAGLVQAGGSLRLSSAASGSIFGPYAMGWYRQAPGKERELVAVISSGDSTNYADSVKGRFTISRDNAKNTVYLQMNSLKPEDTAVYYCATRYLLYRGGHSLFYHFDYWGQGTQVTVSS
polyreactivity (PSR sort gate): low polyreactivity

QVQLVESGGGLVQAGGSLRLSCAASGRTFGYYAMGWYRQAPGKERELVAAITRTGGSTHYADSVKGRFTISRDNAKNTVYLQKNSLKPEDTAVYYCARDYRYTIPYDYWGQGTQVTVSS
polyreactivity (PSR sort gate): low polyreactivity

QVQLVESGGGLVQAGGSLRLSCAASGGTFSPYAMGWYRQAPGKERELVAVIRSDVTTNYADSVKGRFTISRDNAKNTVYLQMNSLKPEDTAVYYCAVQYLGYGGLFPLDYWGQGTQVTVSS
polyreactivity (PSR sort gate): low polyreactivity

QVKLVESGGGLVQAGGSLRLSCAASGFIFGDNAMGWYRQAPGKVREFVAAINSGSRTSYADSVKGRFTISRDNAKNTVYLQMNSLKPEDTAVYYCAAESVSSGDYASRYDYWGQGTQVTVSS
polyreactivity (PSR sort gate): low polyreactivity

QDQLVESGGGLVQAGGSLRLSCAASGRIFGSYAMGWYRQAPGKERELVAAISIGGRTYYADSVKGRFTISRDNAKNTVYLQMNSLKPEDTAVYYCNAPAYYWRHYVYDSGYDYWGQGTQVTVSS
polyreactivity (PSR sort gate): low polyreactivity

QVQLVESGGGLVQAGGSLRLSCAASGSTFAAYVMGWYRQAPGKERELVAAITKSGSSTYYADSVKGRFTISRDNAKNTVYLQMNSLKPEDTAVEYCAAYPVRVLYDYWGQGTQVTVSS
polyreactivity (PSR sort gate): high polyreactivity

QGQLVESGGGLVQAGGSLRLSCAASGITFPGYAMGWSRQAPGKERELVAVIRKSGTSTYYADSVKGRFTISRDNEKNTVYLQMNSLKPEDTAVYYCADGGPSTVDVYWGQGTQVTVSS
polyreactivity (PSR sort gate): low polyreactivity

QVQLVESGGGLVQAGGSLRLSCAASGRTFGYYAMGWYRQAPGKERELVAAISWRGGSTYYADSVKGRFTISRDNAKNTVYLQMNSLKPEDTAVYYCHRAYVYPQGPYPYDYWGQGTQVTVSS
polyreactivity (PSR sort gate): high polyreactivity

QVQLVESGGGLVQAGGSLRLSCAASGSTFYENAMVWSRQAPGKDRELVAAISRSTGRTYYADSVKGRFTISRDNAKNTVYLQMNSLKPEDTAVYYCAARVYGRMYFWGQGTQVTVSS
polyreactivity (PSR sort gate): high polyreactivity

QVQLQESGGGLVQAGGSLRLSCAQSGTICGWDRMGRYRQAPGKERELVATIDNRGSTNYADSVKGRFTISRDNANNTVYPQKISLKPDDTAVDYCAVVGPTPQYHLYWGQGTQVTVCS
polyreactivity (PSR sort gate): high polyreactivity

QVQLVESGQGLVQAGGSLRLSCAASGFTFWGYTMGWYRQAPGKERELVAGITLSGGSTYYADSVKGRFTISRDNAKNTVYLEMNSLKPEDTAVYYCAAKPYQVSSYDFSLRDYWGQGTQVTVSS
polyreactivity (PSR sort gate): low polyreactivity

QVQLVESGGGLVQAGGSLRLSCAASGSTLLTYTMGWYRQAPGKERELVASITTSGGSTYYADSVKGRFTSSRDNAKNTVYLQMNSLKPEDTAVYYWGQGTQVTVSS
polyreactivity (PSR sort gate): low polyreactivity

QVQRVESGGRLVQAGGSLRLSCAASGSTFPSYAMGWSRQAPGKERELVAAISWSGGTTYYADSVKGRFTISRDNAKNTVYLQMNSLKPEDTAVYYCAAGGRRQAYGRRDYWGQGNQVTVSS
polyreactivity (PSR sort gate): high polyreactivity

QVQLVESGGGLVQAGGSLRLSCAASGIIFGENAMGWYRQAPGKERELVAAINSVGSTYYADSVKGRFTISRDNAKNTVYLQMNSLKPEDTAVYYCAAESWFLRWYRYDYWGQGTQVTVSS
polyreactivity (PSR sort gate): low polyreactivity

QVQLVESGGGLVQAGGSLRLSCAASGYTFLGYAMGWSRQAPGKERELVAAIRRSGGRTYYADSVKGRFTISRDNAKNTVYLQMNSLKPEDTAVYYCAKGYVGEYDYWGQGTQVTVSS
polyreactivity (PSR sort gate): high polyreactivity

QVQLVESGGGLVQAGGSLRLSCAASGRTFLTNTMGWYRQAPGKERELVAAISSGGSTKYADSVKGRFTISRDNAKNTVYLQMNSLKPEDTAVYYCAATGWRYGYKYYYWGQGTQVNVSS
polyreactivity (PSR sort gate): high polyreactivity

QVQLVESGGGLVQAGGSLRLSCDASGFTFSAYAMGWYRQAPGKERELVAAISTRGGSTRYADSVKGRFTISRDNAKNTVYLQMNSLKPEDTAVYYCADDTRSFYRYDYWGQGTQVTVSS
polyreactivity (PSR sort gate): high polyreactivity

QVQLVESGGGLVQAGGSLRLSCAASGLTFWAYAMGWYRQAPGKEREFVAAISWSGDSTYYADSVKGRFTISRDNAKNTVYLQMNSLKPEDTAVYYCAAEWYYVYIAPYDYWGQGTQVTVSS
polyreactivity (PSR sort gate): low polyreactivity

QVQLVESGGGLVQAGGSLRLSCAASGSIFYRNAMGWYRQAPGKERELVAAISSDGSTNYADSVKVRFTISRDNAKNTVYLQMNSLKPEDTAVYYCAAPWTQILDYWGQGTQVTVSS
polyreactivity (PSR sort gate): low polyreactivity

QVQLVESGGGLVQAGGSLRLSCAASGSIFYLYAMGWYRQAPGKERELVATISLSSGSTYAASVKGRFTISRDNAKNTVYLQMNSLKPEDTAVDYCAKDLTRWGYNEYDYWGQGTQVSVSS
polyreactivity (PSR sort gate): low polyreactivity
